In the NTF2 design screens of Basanta et al. (2020):

Assay: protease stability score; higher = more stable; yeast display proteolysis, trypsin and chymotrypsin;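 also: log10 excess protease needed over predicted unfolded state with 0 meaning unfolded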

Point of comparison: “DEEDQRTIAKEVVKVMETGDEDRMRELVDEDVKVQYGDKTVHGREQAQRAMKDLRRRADHITMDSVTVHNGEITIKAQLKYNGQNQRVVVQVRVHNGKIKEFRFREQ”, protease stability score 1.34. Against it:
- DEEDNKTAKKLAKTGDPDEFAEQADEDVHIVVGDFEVHGRDELRKLMKRLKDHIDHKEIKRLRVHNGHVDLKFKAVFNGQEMEVSVILTARNGKIKRLEFRVRDDHAHELLEHLLK — lower, 1.03
- DEEDNTKLKRIMQTGDFETLVHQADENAEFHYGDKTYHGNDQAHKAVENQKKQFDKIEVRSIETKNGHVHVEFRIEVNGRELVLTAFANVHNGRVKNATVQARSEEDRKSLKELDR — lower, 0.044
- DEEDNTRLVNLFEHNDWDTIADQADPEAQLVIGDKTYTGREEVKKALSTLVERVDRIEFKRFDVHGNKIHVKMELRFDGRNIELVMRITIKNGRIKSIKIRARDKEVEKILKEMHS — lower, 1.22
- DEEDQAKELAERYLEAMENGDEEKNARLADKDVSLTVGDKHVHGREELKKWFRTFVHRVDHVEIQVHDVKVSNGNATIDAEIKYTFNGRDVKKQVLMHAHVKNGELTLKRMTFE — lower, 1.02
- DEEDQEKFARDFVRILKDGNPDRARKMFDENARVHVGEKVVHGRDQIRTLVEEIHRRADRINITDFRVHGNSFVFIVVLEKNGETRSFTIVVIVHNGRAQSMHVQSN — lower, 0.96
- DEEDQERLEDFLRALKKGDEERLKELVDPNAQFEIGDTTYHGREHFLHTMRRKNEEIRVERDFHTVRAENGHVEMHFHAQENHNGRPRTFTAHATAVIHNGRLKSFVLKVDG — lower, -0.026
- DEEDQHVAKEFFSAMLTNDTDKLRRLADPNVRAHIGDKVIHGKEQFVRHVHELVEHQRVQVDRMDLDVDGERVRVEMRHVNEENGQPNDRKAKNSMDIHNGEIKYVTIKTQS — lower, -0.437
- DEEDQKELADEMVKVLETGDEDRFSQLLDKDVNINVGDQTYSGSEQAVKWFRELLDNVDSFKFDRVRVNGDQLQIHAILDVNGHDIHVVFQVQFHNGRAQHLNMRYTDDEEKKRFDS — the same, 1.34
- DEEDQKHAESFFRNLINNNPEKLKEMADPNAEFEVGDKTLNGTEDLSKWAQKLKDQARMSIQSLTIRVENGRLSATMTFEVEHNGQPDRMKITAHASITNGKITHFMLRLDPKQYKSWVG — lower, 0.493
- DEEDQKNFAEQANRALHHGDPRQMATLADKDAEVTVGDREYKGRRDINEAMKDWSDQVDSIEVKSVTVQGNNIVVHFVFVHNGHEHKVVMRITMEGDKATSIHLDEK — lower, 0.336
- DEEDQKRKANNVAENLINGNEDEARKYIDKDARVHVGDKTYRGREEARKVWHELRKKVDHLRVEHIDVQGDKVDVQAFFRHNGNQTNIQVHIRMENGHVKSISVDNR — lower, -0.216
- DEEDQKRVLQEIVRMIQSGDPSQAKRLADPNATAEVGDKTYHGREKLSKYAKDLHDRVDRVHIQHYTVEGNKARIRVEVSVNGRTRQFEVKVQYHNGHITRLKVDTS — lower, 0.05
- DEEDQKTVEEFLHNLEKNNEDQIKRLLDKDVKFIIGDKELHGMEDAVDRLRRHIEEMKVRIESVSNTVSGDKVVVDFTFIEDQNGKPDRKRMKIEFRFHNGKAKEIRIETRQ — higher, 1.38
- DEEDQKVFERILEIFKTGDEEEAQKNMDKDVRVQYGDKQLHGRENIARELQTKMNELRYKFSIESVENHNGQVRVNFQFVENHNGRPSRKKAKLVVHFRNGKLRNFEQQDVS — lower, 0.534
- DEEDQLKEIVERVHDVYKHGDEDKVRKMVDPNARARIGDKRIHGHDNFAKMIAEWKRKADSVSVHVEEFRVSGNKMTMTIRIKMDHNGRDTTFRYTAVATNTNGRVRVVRIQEK — lower, 0.049
- DEEDQRRVAHDAADALRTGDPDRMVQLADPNVTLDIGDKRFTGDEEFHKAMKEISRQVDHMKIDSYTVRNGRASISAVLEVNGKRKRVFFVFVIHNGRIKELHIKTE — higher, 1.59
- DEEDRHELQRRAEHGDFLNLAHNADPNAHIKVGDKDLTGREDLDHVLRKMHNRIDRYHLVHVTKTGDKLVVRAQARVDGRDIEFKMEIRARNGRIKEVSIRFRSEEDQKTFEKLLK — lower, 0.059
- DEEDRKSLHDLNRTGDEDEIAHNVDPNAKLDVGEFKVHGSEQVKKVMEELKKRIDHRHIRSISVRGDKLVARVQIDVNGQTAYYRLIIRVHNGRIKEINADYTSEDDKKAVNEAKS — lower, 0.756
- DEEDRRKAKEAAERNDWKHFSDQMDEDVRVLVGDKRFHGREEAKQFVQKVEDRADTQSVDSVDVQGNQVDLDMKLNINGNDVRAQFEFYFHNGRIKEIKVTFTDPREERQFKELIK — lower, 1.25
- DEEDSKQMKQVLEAIRRGDEDHVRQQFDPNARIRVGDKEYHGMEEYASDLRSKRSKLDHKINLKTMSASNGRIDFVVQVQFTIDGQPVTDEVRATAVVHNGKIVSLSNEVDEERISEVEK — lower, -0.705
- DEEDVDRAARKFAEGNPDDVLKLADPNAELHVGDQTVHGKEDLERVMELDKRRIDHIHVNSMSVQGDNVKVLFKVVVNGRNIEFTLTANAHNGSIQFVMLNFTDERDEDKRRKALS — lower, 0.28
- DEEDVDRFAKTFAEIFQSGNPENIREMMDPNARLHVGERTYHGRETIVQYLKRLRRDVDSIHLVSITNHGESIVIKVSLDVNGQHVVVHINVHFQNGRIKSMSMTYRDEEDRKKYEG — higher, 2
- DEEDVEKMVRLVRDGDWEQFARNADENVRIQIGNREVHGRNEAHKAADKLTKHIDHFRIDRYDRNGDKLDVLFRMTVNGQEVKARMYVEVHNGRVTRMEIRATSEEILKRIDEVLS — higher, 1.37
- DEEDVKKAETLIKNGDWERIANHLDPNAKATYGDKTFHGHEELKRVIKNLQDQVDSLHIHKVDVQGNSVIVSADLHVNGETLKMTFVMHVHNGRVKEVSANVTSSELKELLDHMLS — lower, 0.749
- DEEDVKKILDKVLKMAVKGDKDQVKTMLKPDVEYIHIDEKRQGQQVAEQVHKEIKKVGARAEIKEKTVEGDKAKVTYQFKVNGRTVEVTAEVEAKDGRVDKWQVHISDEAKEMMTKG — lower, -0.289
- DEEDVKRAERFQKHYQQGNTEEMRKLLDKNARIEVGDKTLHGRDDAKDKLRKNLDNWRFSMDSVDNKLKNGQVRIDIKYRMVINGRPFSITYKLNVKFENGKVQFMEDRISEDDQRHLEK — lower, 0.582
- DEEDVKRAVEIFNTNNEEDLRRLVDKHAKITVGDKDVHGRKTAETLIHKLNSQADRIHLESVHKNGEQVVIKMVADVNGEKLDFQIVFVIKNGRLTSQRNVARNEDVERTLKNLYS — lower, -0.119
- DEEDVKRFAREFFTALQKNDEKKVTDLVDENARAEVGEREYHGREDVATMLARFNKRVDHAHLKRLEVTGDQVIMVFEVVHDGRKTNVSIDMRVHNGRLLEFRMETS — higher, 1.41
- DEEDVKTLMNLMRNNNFEDLQRMADPNAKVIVGDQTYQGQKEVRTFLHKLKDQIDHLDIKSLDYHNGRVVLDVEATVNGQRFRYVLTVDVHNGHVKSVRFQARSEKDERILKEQAS — lower, 1.11
- DEEDVKTMIRIINTGDPDKFEKYFDPNASVRIGDHTFKGNKQVSEFIRRMRRKADHIEVKRVKTTNGRADIDLVVTFNGREIRFHVHAEAHNGKAERQELKVTDPNQQKELNNLVH — lower, 0.837
- DEEDVRRMENVVRENNEHRLAQLADKNARMTVGDQTYHGKEKIAEAIRRVQKQVDHMEIERLTIHGDKIRADVTMVVNGQRFRYVVVFNVKNGRLKERSVNFRDERDSEEFKKIEK — lower, 0.021
- DEEDVRRVAKQAKEYVQKGNKEKLMDLGKEGVDYRVLDHKAKGPEAIKTMQDYLERKGARVEVKKLEVKGDQVRTEVHYKQGDTTATAEVHATVKGGKIDKVKVDLSDRAKEILKHG — lower, -0.141
- DEEDVTRLAEEMVRAFESGNPEDWVKMLDENARVRIGDKVYHGREQVQTFANSWVSRADHARVESFSVHGDNIHIKAVMDIDGVRVQVIIVARAHNGRVQELRVEWRNEDQKKHVDK — lower, 1
- DEEDYKKMNEQLERIYKHGDPEEAEKMFDPNAKAEVGDKTIHGREEFRKYQQDRKDQADHVQVKDFKVQGERFVMEVVAHVNGREVRQVVNFTVHNGKIQDLKVREK — lower, 0.013
- DEEDYKSIATEFVQALREGDEQHFRRLLDEEVNNDVGDKRIRGREKVETELRKILHKVDHVDVKDYKVHNGHVTVDMRFDDNGKEERWTMQAQFHNGRLKSIWMRTR — lower, 1.08
- DEEEADKVAKDFNRMLTKGDEHRASQLFDENATVVVGDKTVHGTESIKKIIHEIHRKADHIEIDSVKNRGNKVQVDLHQDINGTRERYVFHVSFHNGRIKYAEINQD — lower, -0.322
- DEEEADSWMKILQTNDEKKARDNIDPNATAHVGEQRFDGAQDFVARFMQVLKSADHVRIHSVDHEGDKVRMDITFDINGQRARVVLNIQIKNGRVVHVSVEVRNEEVKKVFDKALK — lower, 0.16
- DEEEAEKILEKLVKAVENGDETKLMQLGADGVRYKVGDREDHGPEAIQKAMQYLKRYGVRVEFKEVKHKGDRVTTVAEYENGDKRNTVTIHAHAKGGKIDEVQVNVDEDLVKFIKHG — lower, 0.266
- DEEEAHELLKKVLHYTVKGNVDELRKFVKPDLKYVLGDQEHQGSQVADQVEKEIRRQGTRLEVEKAEVKGDKAELQYRFTVAGKTFTLHVRVRAKDHRVDEWKVEMTDDVKEYQKKG — lower, 0.391
- DEEEAHKFQEAVERNDFEKFVRNADPNAHVQVGDQHIDGHDKMRKQYHDLKRAADKIEYKSIDVQGDKIDVKFTVRFNGREYEVHMQIEVHNGRLKTVKYDATSEHNRTILQEMMS — lower, -0.032
- DEEEAHKVKDVVENGDPDTLQNMADKDATARYGDKQVHGREQVRTAIKLWMDHVDHIDIRNIHVEGNKVNVDAVFNVNGRNLNVRFRMEVHNGKIKSFELQATDERIRETLERILS — lower, 1.02
- DEEEAHKVQEAWKTGDPDHLRDLFDKDVRLVYGDQEVHGREELVKIFKKQQDQYDHQHIERVSLTGNRVEIRYKAVVNGQTVSRVIYIKIKNGRIKEMEIRATNPEELKEMYRLAS — lower, 0.284
- DEEEAKEFADVFKNGDQDRYADLFDPNARVNIGNKEYHGRERVRTAVRTFFQRIDHIQVNHVRIEGNQLRIDAKMEINGQRIQVVFKVRIHNGHIKQFVVDFRDEQTMREFHKQLE — lower, 1.27
- DEEEAKEMMEKWMKIVEKGDSDKAQKIYKPNVVWENVDKKTQGVKQVKEMVKRIKDQGMEFQVRRAEVEGNTVEVQYDVRIGNTTVTFKVQVKAEGGRIDEVRVELDETAVKQLKKG — lower, 0.31
- DEEEAKKFMETWQKAVEKGDTKTARELYDPNVEWIDYSQRHQGVEMVVKQMQQVKKKGVEFQIRKAKVEGNEVEVVYDANIGNETATFTVQFRAEGGRVKEVRVKMDEKAKKIKREG — lower, 0.064
- DEEEAKKIVETVVKAVENGDVEKLKQMIKEGGKYKVINRERHGPEAVEEVIRLLQKAGVEMEFKEVRVEGNTATTRVEYRHGDKEAEVKVTATMQGGRIDEVRFKMSEEAQKMVEHG — lower, 1.08
- DEEEAKKNVKVWEQNDPDTFNKLVDKDAKAVIGDKEVHGRSEINRIIKRLLQQADHWQVDEVHIHNGRVHISYQFVINGQRLDVRVTIELRNGRIKDVKVHFTDDEQKKRANENVR — lower, 0.943
- DEEEAKKVLDKAVKAVKNGDLKHLKDLGKDGVEYRIADKKAHGPEQIEKVMEYLHRKGVRIEFKRQEVKGNTVTTDIEYQQGDETYTVQAHATVKGGRIDKVEIDVSERAKKVMDHG — lower, 0.149
- DEEEAKKVMEKWMKVVQKGDKDKVKKLYPPNVNWLNINTQKQGVEVVVKMMKQVQDKGAQFQVRRAEVKGDEAEMQYDLRIGDKTATFTVRIRAKGGQVEMVEVKVTEEAKKIVDTG — lower, 0.111
